We go through 14 molecules from patent US20250263502A1 (published 2025).

The target in assay [1] is T1, ectodomain of human CD98hc (human, UniProt P08195 105-529).
T1 chain: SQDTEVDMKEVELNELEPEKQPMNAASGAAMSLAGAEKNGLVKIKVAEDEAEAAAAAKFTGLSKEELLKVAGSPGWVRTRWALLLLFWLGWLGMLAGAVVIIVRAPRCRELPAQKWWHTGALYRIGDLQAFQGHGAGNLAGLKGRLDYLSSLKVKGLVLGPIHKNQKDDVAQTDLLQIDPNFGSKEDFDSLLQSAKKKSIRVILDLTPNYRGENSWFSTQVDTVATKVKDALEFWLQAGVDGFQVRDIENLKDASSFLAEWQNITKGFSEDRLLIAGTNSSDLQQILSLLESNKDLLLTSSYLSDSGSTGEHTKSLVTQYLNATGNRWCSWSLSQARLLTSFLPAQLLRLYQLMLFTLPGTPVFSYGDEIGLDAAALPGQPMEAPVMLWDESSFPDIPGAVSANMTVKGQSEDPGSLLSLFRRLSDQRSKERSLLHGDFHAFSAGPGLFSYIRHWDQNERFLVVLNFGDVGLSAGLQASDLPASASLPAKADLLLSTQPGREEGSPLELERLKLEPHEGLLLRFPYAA
Nature of the assay: ELISA, purified VNAR-Fc titrated on coated CD98hc. A general note: In an ELISA, binding on a coated surface is turned into a signal by an enzyme label.

In assay [2] the target is T1, ectodomain of human CD98hc. Nature of the assay: ELISA, expression medium of VNAR-hFc on coated protein.
The target in assay [3] is T1, ectodomain of human CD98hc. Nature of the assay: ELISA, VNAR-hFc titrated on coated human CD98hc.

B1: VNAR clone H6 fused N-terminally to human IgG1 Fc (VNAR-hFc) (Fc fusion)
chain: ARVDQTPQTITKEEGESLTINCVLRTHSNALASTSWYRKKSGSTREETISKGGRYVETVNSGSKSFSLRINDLTVEDSGTYRCNVYAFLEIQPNIYHEFDVYGDGTAVTVNA
notes: Bivalent VNAR-Fc from Expi293 cells; not shown: human IgG1 Fc (hinge, CH2 and CH3) as encoded by vector pFUSE-hIgG1e3-Fc2
A word on the EC50: it is the concentration that produces a half-maximal response. For B1, the EC50 in assay [1] was found to be 6 nM. Also, in assay [2], the “Binding [relative units]” value was 3.31 relative units.

B2: VNAR clone G3 fused N-terminally to human IgG1 Fc (VNAR-hFc) (Fc fusion)
chain: ARVDQTPQTITKETGESLTINCVLRDNNCALSTTYWYRKKSGSTNEENISKGGRYVETVNSGSKSFSLRINDLTVEDSGTYRCKVHFFPSFCNSTSIRSVDVYGGGTVVTVNA
notes: as for B1
In turn, B2 came in with an EC50 in assay [1] of 107 nM. In assay [2], the “Binding [relative units]” value worked out at 1.48 relative units.

B3: VNAR clone E12 fused N-terminally to human IgG1 Fc (VNAR-hFc) (Fc fusion)
chain: ARVDQTPQTITKEEGESLTINCVLRTQDPALASTSWYRKKSGSTREETISKGGRYVETVNSGSKSFSLRINDLTVEDSGTYRCNVYFLLAPTKTKLQGIDVYGDGTAVTVNA
notes: as for B1
On to B3, for which, in assay [1], a half-maximal response (EC50) required 56 nM. For the same molecule, the “Binding [relative units]” value in assay [2] was found to be 2.19 relative units.

B4: VNAR clone H7 fused N-terminally to human IgG1 Fc (VNAR-hFc) (Fc fusion)
chain: ARVDQTPQTITKEEGESLTINCVLRYNNPALASTSWYRKKSGSTREETISKGGRYVETVNSGSKSFSLRINDLTVEDSGTYRCNVYFFPSFLVDKLQSHDVYGDGTAVTVNA
notes: as for B1
Take B4: in assay [1], the midpoint of the response, the EC50, lay at 6 nM. Further, the “Binding [relative units]” value in assay [2] worked out at 3.93 relative units.

B5: VNAR clone F1 fused N-terminally to human IgG1 Fc (VNAR-hFc) (Fc fusion)
chain: ARVDQTPQTITKEEGESLTINCVLRVHGRALASTSWYRKKSGSTREETISKGGRYVETVNSGSKSFSLRINDLTVEDSGTYRCNVYGLSSGDIEGVKKIDVYGDGTAVTVNA
notes: Bivalent VNAR-Fc from Expi293 cells; also called F1-hFc; not shown: human IgG1 Fc (hinge, CH2 and CH3) as encoded by vector pFUSE-hIgG1e3-Fc2
For the molecule B5, the EC50 in assay [1] amounted to 3 nM. Besides, the “Binding [relative units]” value in assay [2] worked out at 3.76 relative units.

B6: F12 variant F12-G02 as VNAR-hFc fusion (Fc fusion)
chain: ARVDQTPQTITKEEGESLTINCVLRVHGRALASTSWYRKKSGSTREETISKGGRYVETVNSGSKSFSLRINDLTVEDSGTYRCNVYGLMNVDIEGVKKIDVYGDGTAVTVNA
notes: not shown: human IgG1 Fc (hinge, CH2 and CH3) as encoded by vector pFUSE-hIgG1e3-Fc2
For the molecule B6, the EC50 in assay [3] was determined as 10 nM.

B7: F12 variant F12-B12 as VNAR-hFc fusion (Fc fusion)
chain: ARVDQTPQTITKEEGESLTINCVLRVHGRALASTSWYRKKSGSTREETISKGGRYVETVNSGSKSFSLRINDLTVEDSGTYRCNVNGLSSGDIEGVKKLDVYGDGTAVTVNA
notes: as for B6
Regarding B7, in assay [3], it took 10 nM to reach a half-maximal effect (EC50).

B8: F12 variant F12-C01 as VNAR-hFc fusion (Fc fusion)
chain: ARVDQTPQTITKEEGESLTINCVLRVHGRALASTSWYRKKSGSTREETISKGGRYVETVNSGSKSFSLRINDLTVEDSGTYRCNVYGLSSGDSEGVKKIDVYGDGTAVTVNA
notes: as for B6
Turning to B8, the EC50 in assay [3] worked out at 30 nM.

B9: F12 variant F12-G04 as VNAR-hFc fusion (Fc fusion)
chain: ARVDQTPQTITKEEGESLTINCVLRVHGRALASTSWYRKKSGSTREETISKGGRYVETVNSGSKSFSLRINDLTVEDSGTYRCNVNGLSSGDIEGVKKIDVYGDGTAVTVNA
notes: as for B6
B9: in assay [3], a half-maximal effect (EC50) was put at 30 nM.

B10: F12 variant F12-H04 as VNAR-hFc fusion (Fc fusion)
chain: ARVDQTPQTITKEEGESLTINCVLRVHGRALASTSWYRKKSGSTREETISKGGRYVETVNSGSKSFSLRINDLTVEDSGTYRCNVYGLMQGDIEGVKKIDVYGDGTAVTVNA
notes: as for B6
With B10, a half-maximal response in assay [3] (EC50) required 20 nM.

B11: F12 variant F12-A01 as VNAR-hFc fusion (Fc fusion)
chain: ARVDQTPQTITKEEGESLTINCVLRVHGRALASTSWYRKKSGSTREETISKGGRYVETVNSGSKSFSLRINDLTVEDSGTYRCNVNGLSSGDKEGVKKIDVYGDGTAVTVNA
notes: as for B6
B11 yielded a concentration giving a half-maximal response (EC50) in assay [3] of 10 nM.

B12: F12 variant F12-E03 as VNAR-hFc fusion (Fc fusion)
chain: ARVDQTPQTITKEEGESLTINCVLRVHGRALASTSWYRKKSGSTREETISKGGRYVETVNSGSKSFSLRINDLTVEDSGTYRCNVNGLSSGDQEGVKKIDVYGDGTAVTVNA
notes: as for B6
Turning to B12, it took 40 nM to reach a half-maximal effect in assay [3] (EC50).

B13: VNAR clone F12 fused N-terminally to human IgG1 Fc (VNAR-hFc) (Fc fusion)
chain: ARVDQTPQTITKEEGESLTINCVLRVHGRALASTSWYRKKSGSTREETISKGGRYVETVNSGSKSFSLRINDLTVEDSGTYRCNVYGLSFGDIEGVKKIDVYGDGTAVTVNA
notes: Bivalent VNAR-Fc from Expi293 cells; also called F12-hFc; VNAR F12-hFc; not shown: human IgG1 Fc (hinge, CH2 and CH3) as encoded by vector pFUSE-hIgG1e3-Fc2
B13: a half-maximal effect in assay [1] (EC50) was put at 12 nM. Further, the “Binding [relative units]” value in assay [2] was determined as 3.99 relative units.

B14: VNAR clone D1 fused N-terminally to human IgG1 Fc (VNAR-hFc) (Fc fusion)
chain: ARVDQTPQTITKEEGESLTINCVLRHNYSALASTSWYRKKSGSTREETISKGGRYVETVNSGSKSFSLRINDLTVEDSGTYRCNVYGISFIEEKIRYDFDVYGDGTAVTVNA
notes: Bivalent VNAR-Fc from Expi293 cells; also called D1-hFc; not shown: human IgG1 Fc (hinge, CH2 and CH3) as encoded by vector pFUSE-hIgG1e3-Fc2
B14 returned an EC50 in assay [1] of 28 nM. Moreover, the “Binding [relative units]” value in assay [2] turned out to be 3.5 relative units.
